Test results taken from patent US20220177564A1 (Ablynx, published 2022).
“And” between values parts separate entries of the source, which are not always exact repeats. Equal entries are not always repeated.

Legend:
human IL4 = molecular target: T1, human IL4 (human, UniProt P05112 25-153); assay: SPR (ProteOn XPR36), cytokine immobilised by amine coupling
T1 construct: also called human 1L4
T1 sequence (looked up): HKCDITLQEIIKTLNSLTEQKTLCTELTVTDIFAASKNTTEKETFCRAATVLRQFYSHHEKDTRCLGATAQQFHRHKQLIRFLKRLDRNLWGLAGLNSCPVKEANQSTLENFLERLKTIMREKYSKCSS

human IL7 = molecular target: T2, human IL7 (human, UniProt P13232 26-177); assay: as above
T2 construct: also called 1L7
T2 sequence (looked up): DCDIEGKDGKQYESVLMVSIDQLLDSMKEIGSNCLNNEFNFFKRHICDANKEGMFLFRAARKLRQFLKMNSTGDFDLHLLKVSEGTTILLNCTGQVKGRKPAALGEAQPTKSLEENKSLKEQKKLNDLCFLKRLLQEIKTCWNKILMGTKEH

human TSLP [1] = molecular target: T3, human TSLP (human, UniProt Q969D9 29-159); assay: cell-based or functional assay
short form of TSLP = short form of TSLP (UniProt Q969D9-2 1-63, limits assumed); assay: SPR (ProteOn), short form of TSLP immobilised
cyno IL-13 [2] = molecular target: T4, cyno IL-13 (cynomolgus monkey, UniProt Q0PW92 21-132); assay: cell-based or functional assay
human IL-13 [3] = molecular target: T5, human IL-13 (human, UniProt P35225 35-146, limits assumed); assay: cell-based or functional assay
rhesus IL-13 [4] = molecular target: T6, rhesus IL-13 (rhesus monkey, UniProt Q864V6 19-132, limits assumed); assay: cell-based or functional assay
cyno IL-13 [5] = molecular target: T4, cyno IL-13; assay: Gyrolab in-solution affinity, 48 h incubation
human IL-13 [6] = molecular target: T5, human IL-13; assay: Gyrolab in-solution affinity, 48 h incubation
human TSLP [7] = molecular target: T3, human TSLP; assay: Gyrolab in-solution affinity, 48 h incubation
cyno TSLP [8] = molecular target: T7, cyno TSLP (cynomolgus monkey, UniProt A0A7N9CAT7 29-159); assay: Gyrolab in-solution affinity, 48 h incubation
T7 construct: also called cynomolgus monkey TSLP

cyno IL-13 [9] = molecular target: T4, cyno IL-13; assay: cell-based or functional assay; remark: listed apart in the source
human IL-13 [10] = molecular target: T5, human IL-13; assay: cell-based or functional assay; remark: listed apart in the source
human serum albumin = molecular target: T8, human serum albumin (human, UniProt P02768 25-609); assay: Gyrolab in-solution affinity, 2 h incubation
T8 construct: also called HSA; SA (human)

mouse serum albumin = molecular target: T9, mouse serum albumin (mouse, UniProt P07724 25-608); assay: Gyrolab in-solution affinity, 2 h incubation
T9 construct: also called SA (mouse)

cyno serum albumin = molecular target: T10, cyno serum albumin (cynomolgus monkey); assay: Gyrolab in-solution affinity, 2 h incubation
T10 construct: also called SA (cynomolgus monkey)

cyno IL-13 [11] = molecular target: T4, cyno IL-13; assay: Gyrolab in-solution affinity, 72 h incubation
human IL-13 [12] = molecular target: T5, human IL-13; assay: Gyrolab in-solution affinity, 72 h incubation
human TSLP [13] = molecular target: T3, human TSLP; assay: Gyrolab in-solution affinity, 72 h incubation
rhesus IL-13 [14] = molecular target: T6, rhesus IL-13; assay: Gyrolab in-solution affinity, 72 h incubation
cyno TSLP [15] = molecular target: T7, cyno TSLP; assay: Gyrolab in-solution affinity, 72 h incubation
human TSLP [16] = molecular target: T3, human TSLP; assay: cell-based or functional assay; remark: listed apart in the source
cyno TSLP [17] = molecular target: T7, cyno TSLP; assay: cell-based or functional assay
human IL-13 [18] = molecular target: T5, human IL-13; assay: AlphaScreen, purified ISVD; hIL-13 to hIL-13Rα1-hFc
cyno IL13-Fc [19] = molecular target: T11, cyno IL13-Fc (cynomolgus monkey, UniProt Q0PW92 11-132); assay: SPR (ProteOn XPR36), periplasmic extract over immobilised Fc fusion
T11 construct: not shown: Fc part and any linker not described

hIL13-Fc [20] = molecular target: T12, hIL13-Fc (human, UniProt P35225 25-146); assay: as above
T12 construct: not shown: Fc part and any linker not described

human IL-13 [21] = molecular target: T5, human IL-13; assay: cell-based or functional assay; remark: listed apart in the source
cyno IL13-Fc [22] = molecular target: T11, cyno IL13-Fc; assay: SPR (BIAcore T100), cyno IL13-Fc immobilised on CM5; heterogeneous ligand fit, major interaction
hIL13-Fc [23] = molecular target: T12, hIL13-Fc; assay: SPR (BIAcore T100), hIL13-Fc immobilised on CM5; heterogeneous ligand fit, major interaction
hIL13-Fc [24] = molecular target: T12, hIL13-Fc; assay: competition ELISA; hIL13-Fc to coated IL13Rα2
hIL13-Fc [25] = molecular target: T12, hIL13-Fc; assay: SPR; * measured on hIL-13-Fc (same values as Table 9)
human IL-13 [26] = molecular target: T5, human IL-13; assay: AlphaScreen, purified ISVD; hIL-13:hIL-13Rα1:hIL4Rα ternary complex
hTSLP-Fc [27] = molecular target: T13, hTSLP-Fc (human, UniProt Q969D9 29-159); assay: SPR (BIAcore T100), Fc fusion captured by anti-huIgG
T13 construct: also called hTSLP-hFc; hTLSP-Fc; not shown: human Fc part and any linker not described

cyno TSLP-Fc [28] = molecular target: T14, cyno TSLP-Fc (cynomolgus monkey, UniProt A0A7N9CAT7 29-159); assay: as above
T14 construct: also called cyno TSLP-hFc; not shown: human Fc part and any linker not described

cyno TSLP-Fc [29] = molecular target: T14, cyno TSLP-Fc; assay: SPR, cyno TSLP-hFc (same value as Table 10)
human TSLP [30] = molecular target: T3, human TSLP; assay: AlphaScreen, purified ISVD; hTSLP to hTSLPR
human TSLP [31] = molecular target: T3, human TSLP; assay: SPR, hTSLP
hTSLP-Fc [32] = molecular target: T13, hTSLP-Fc; assay: SPR, hTSLP-hFc (same value as Table 10)
hTSLP-Fc [33] = molecular target: T13, hTSLP-Fc; assay: SPR (ProteOn XPR36), periplasmic extract over immobilised Fc fusion
cyno TSLP-Fc [34] = molecular target: T14, cyno TSLP-Fc; assay: as above
human TSLP [35] = molecular target: T3, human TSLP; assay: AlphaScreen, purified ISVD; hTSLP:hTSLPR:hIL7Rα ternary complex
cyno TSLP [36] = molecular target: T7, cyno TSLP; assay: SPR, cyno TSLP
hIL13-Fc [37] = molecular target: T12, hIL13-Fc; assay: competition ELISA; soluble IL-13Rα2 as positive control against coated IL13Rα2

B1: F027400161 (other)
chain: DVQLVESGGGVVQPGGSLRLSCAASGRTFSSYRMGWFRQAPGKEREFVAALSGDGYSTYTANSVKGRFTISRDNSKNTVYLQMNSLRPEDTALYYCAAKLQYVSGWSYDYPYWGQGTLVTVSSGGGGSGGGGSGGGGSGGGGSGGGGSGGGGSGGGGSEVQLVESGGGVVQPGGSLRLSCAASGFTFNNYAMKWVRQAPGKGLEWVSSITTGGGSTDYADSVKGRFTISRDNSKNTLYLQMNSLRPEDTALYYCANVPFGYYSEHFSGLSFDYRGQGTLVTVSSGGGGSGGGSEVQLVESGGGVVQPGGSLRLSCAASGSGFGVNILYWYRQAAGIERELIASITSGGITNYVDSVKGRFTISRDNSENTMYLQMNSLRAEDTGLYYCASRNIFDGTTEWGQGTLVTVSSGGGGSGGGSEVQLVESGGGVVQPGGSLRLSCAASGFTFRSFGMSWVRQAPGKGPEWVSSISGSGSDTLYADSVKGRFTISRDNSKNTLYLQMNSLRPEDTALYYCTIGGSLSRSSQGTLVTVSSGGGGSGGGSEVQLVESGGGVVQPGGSLRLSCAASGFTFADYDYDIGWFRQAPGKEREGVSCISNRDGSTYYADSVKGRFTISRDNSKNTVYLQMNSLRPEDTALYYCAVEIHCDDYGVENFDFDPWGQGTLVTVSSA
notes: Pentavalent trispecific ISVD construct (two anti-IL-13 VHHs, two anti-TSLP VHHs, one anti-albumin VHH), Pichia pastoris, purified by Protein A; also called F027100161
binding result (human IL4): no binding (tested: 1 µM)
binding result (human IL7): no binding (tested: 1 µM)
mean IC50, TSLP-induced CCL17 production in human DCs (human TSLP [1]): 0.0533 nM
binding result (short form of TSLP): no binding (tested: 500 nM)
eotaxin release assay (IC50, pM) (cyno IL-13 [2]): 1040 pM
eotaxin release assay (IC50, pM) (human IL-13 [3]): 194 pM
eotaxin release assay (IC50, pM) (rhesus IL-13 [4]): 713 pM
Kd (cyno IL-13 [5]): 0.0038 nM and 0.0015 nM
Kd (human IL-13 [6]): 0.0042 nM and 0.0063 nM
Kd (human TSLP [7]): 0.0018 nM and 0.0023 nM
Kd (cyno TSLP [8]): 0.0559 nM and 0.044 nM
IC50, SEAP reporter assay (HEK-Blue IL-4/IL-13 cells) (cyno IL-13 [9]): 0.0534 nM
IC50, SEAP reporter assay (HEK-Blue IL-4/IL-13 cells) (human IL-13 [10]): 0.0328 nM
Kd (human serum albumin): 0.119 nM and 0.11 nM and 0.145 nM
Kd (mouse serum albumin): 1.8 nM
Kd (cyno serum albumin): 0.198 nM and 0.133 nM and 0.145 nM
Kd (cyno IL-13 [11]): 0.0035 nM
Kd (human IL-13 [12]): 0.0047 nM
Kd (human TSLP [13]): 0.001 nM
Kd (rhesus IL-13 [14]): 0.0015 nM
Kd (cyno TSLP [15]): 0.059 nM
BaF3 proliferation assay (IC50, pM) (human TSLP [16]): 7.8 pM
BaF3 proliferation assay (IC50, pM) (cyno TSLP [17]): 24 pM

B2: F0107004B02 (VHH)
VHH: EVQLVESGGGLVQAGGSLRLSCAASGRTFSSYRMGWFRQAPGKEREFVAALSGDGYSTYTANSVNSRFTISRDNAKNTVYLQMNSLKPEDTAIYYCAAKLQYVSGWSYDYPYWGQGTLVTVSS
notes: Wild-type anti-IL-13 ISVD; also called F010704B02; F107004B02; not shown: c-myc, His6 tag of the purified protein
IC50 (human IL-13 [18]): 4 nM
koff (cyno IL13-Fc [19]): 0.0011 s⁻¹
koff (hIL13-Fc [20]): 0.0017 s⁻¹
IC50, IL-13-induced TF-1 proliferation assay (human IL-13 [21]): 27 nM
Kd (cyno IL13-Fc [22]): 1900 nM
koff (cyno IL13-Fc [22]): 0.034 s⁻¹
kon (cyno IL13-Fc [22]): 18000 M⁻¹ s⁻¹
Kd (hIL13-Fc [23]): 1100 nM
koff (hIL13-Fc [23]): 0.024 s⁻¹
kon (hIL13-Fc [23]): 22000 M⁻¹ s⁻¹
IC50 (hIL13-Fc [24]): 49 nM
Kd (hIL13-Fc [25]): 1100 nM
koff (hIL13-Fc [25]): 0.024 s⁻¹
kon (hIL13-Fc [25]): 22000 M⁻¹ s⁻¹
IC50 (human IL-13 [26]): 1.7 nM

B3: F0107529F10 (VHH)
VHH: EVQLVESGGGLVQAGGSLRLSCAASGFTFADYDYDIGWFRQAPGKEREGVSCISNRDGSTYYTDSVKGRFTISSDNAKNTVSLQMNSLKPEDTAVYYCAVEIHCDDYGVENFDFDPWGQGTLVTVSS
notes: Wild-type anti-TSLP ISVD; also called F107529F10; not shown: c-myc, His6 tag of the purified protein
Kd (hTSLP-Fc [27]): 0.035 nM
koff (hTSLP-Fc [27]): 0.00042 s⁻¹
kon (hTSLP-Fc [27]): 1.2e+07 M⁻¹ s⁻¹
Kd (cyno TSLP-Fc [28]): 1.7 nM
koff (cyno TSLP-Fc [28]): 0.0015 s⁻¹
kon (cyno TSLP-Fc [28]): 870000 M⁻¹ s⁻¹
Kd (cyno TSLP-Fc [29]): 1.7 nM
IC50 (human TSLP [30]): 0.013 nM
koff (human TSLP [31]): 6.6e-05 s⁻¹
Kd (hTSLP-Fc [32]): 0.035 nM
koff (hTSLP-Fc [33]): < 5e-05 s⁻¹
koff (cyno TSLP-Fc [34]): 0.0018 s⁻¹
IC50 (human TSLP [35]): 0.18 nM
koff (cyno TSLP [36]): 0.0018 s⁻¹

B4: IL13Rα2 (receptor, UniProt Q14627 27-343, looked up)
chain: DTEIKVNPPQDFEIVDPGYLGYLYLQWQPPLSLDHFKECTVEYELKYRNIGSETWKTIITKNLHYKDGFDLNKGIEAKIHTLLPWQCTNGSEVQSSWAETTYWISPQGIPETKVQDMDCVYYNWQYLLCSWKPGIGVLLDTNYNLFYWYEGLDHALQCVDYIKADGQNIGCRFPYLEASDYKDFYICVNGSSENKPIRSSYFTFQLQNIVKPLPPVYLTFTRESSCEIKLKWSIPLGPIPARCFDYEIEIREDDTTLVTATVENETYTLKTTNETRQLCFVVRSKVNIYCSDDGIWSEWSDKQCWEGEDLSKKTLLR
notes: Coated on the plate and also titrated in solution as positive control compound
IC50 (hIL13-Fc [37]): 7.9 nM
